Target: T1, OC183B2 (antigens associated with ovarian carcinoma) (human)
T1 construct: It is treated here as a protein antigen; also called HRP-OC183B2
Test: direct ELISA; plate coated with bispecific antibody, HRP-OC183B2 added, read at 492 nm
Procedure: The antigen-binding activity of anti-ovarian carcinoma scFv in bispecific antibody was assayed by direct ELISA. ELISA plate was coated with bispecific antibody at 4° C. overnight. Wells coated with anti-ovarian monoclonal antibody were set as positive control. Plate was washed 3 times with PBST (PBS-0.05% Tween 20) for 5 min. HRP-OC183B2 diluted in 3% goat serum was added and incubate at 37° C. for 1 h. After washing plate 3 times with PBST, the substrate of HRP was added and incubated for 20 min at room temperature in the dark. 2M H2SO4 was added to stop the reaction. All the values of OD492 of bispecific antibody were 2.5 times higher than those of negative control and changed with gradient among the different dilution of bispecific antibody.

B1: anti-human ovarian carcinoma x anti-human CD3 bispecific antibody (bispecific antibody, not shown: a dimerising Fc or GST)
chain: EVQLQESGPEVKKPGETVRISCKASGYTFTTAGMQWVQKMPGKGLKWLGWINTNSEVPKYAEDFRGRFAFSLETSASTAYLQISNLKNEDTATFFCARSFTWGTMDYWGQGTTVTVSSGGGGSGGGGSGGGGSDVVMTQTPLSLPVSLGDQASISCRSSQTLVHSIGNTYLHWYLQKPGQSPKLLIYKVSNRFSGVPDRFSGSGSGTDFTLKISRVEAEDLGVYFCSQSTHVPYTFGGGTKLELKEIVLTQSPATLSLSPGERATLSCSASSSVSYMNWYQQKPGQAPRRWIYDTSKLASGIPARFSGSGSGTDFTLTISSLEPEDFATYYCQQWSSNPFTFGGGTKVEIKRGGGGSGGGGSGGGGSQVQLVQSGAEVRKPGASVRVSCKASGYTFTRYTMHWVRQAPGHGLEWIGYINPSRGYTNYNQKFKDRVTMTTDKSFSTAIMDLRSLRSDDSAVYYCARYYDDHYCLDYWGQGTTVTVSSHHHHHH
notes: Single polypeptide expressed from pAMAB in E. coli G1724, about 52 kDa; Order: anti-ovarian scFv, interlinker, anti-CD3 reshaped scFv, 6 His; also called BsAb; ScBsAb
For B1, the “OD492 relative to negative control” value was 2.5 times.

— patent publication US20080138339A1 (DONGGNAN HAOFA BIOTECHNOLOGY DEVELOPMENTAL, published 2008)
